Patent US20230417748A1
“And” between values parts separate entries of the source, which are not always exact repeats. Identical values can stand only once.

Target: SARS-CoV-2 (2019-nCoV) Spike Protein (S1+S2 ECD, His tag) (Sino Biological, 40589-V08B1) (SARS-CoV-2), P0DTC2
Details: remark: other sources report otherwise

| Binder | O.D. |
| --- | --- |
| clone 5E9 (antibody, V domains shown) VH: EVQLVESGGGLVQPGGSLRLSCAASGFTFTTYDMGWVRQAPGKGPEWVSLISSGGSNTWYDDSVKGRFTISRDNSKNTLYLQMNSLRAEDTAVYYCAKEKYPYSDCDYWGQGTLVTVSS | 0.892 O.D. and 0.904 O.D. |
| clone 6D9 (antibody, V domains shown) VH: EVQLVESGGGLVQPGGSLRLSCAASGFTFTDYDMGWVRQAPGKGPEWVSLISGDSGNTWYDDSVKGRFTISRDNSKNTLYLQMNSLRAEDTAVYYCAKYRGTTKDYWGQGTLVTVSS | 0.997 O.D. and 0.991 O.D. |
